Article doi:10.1101/2023.06.03.543554 (bioRxiv, 2023)

Molecular target: T1, human G-protein coupled receptor 1 (GPR1), FLAG-BRIL fusion construct for cryo-EM (human, UniProt P46091 1-355)
T1 sequence: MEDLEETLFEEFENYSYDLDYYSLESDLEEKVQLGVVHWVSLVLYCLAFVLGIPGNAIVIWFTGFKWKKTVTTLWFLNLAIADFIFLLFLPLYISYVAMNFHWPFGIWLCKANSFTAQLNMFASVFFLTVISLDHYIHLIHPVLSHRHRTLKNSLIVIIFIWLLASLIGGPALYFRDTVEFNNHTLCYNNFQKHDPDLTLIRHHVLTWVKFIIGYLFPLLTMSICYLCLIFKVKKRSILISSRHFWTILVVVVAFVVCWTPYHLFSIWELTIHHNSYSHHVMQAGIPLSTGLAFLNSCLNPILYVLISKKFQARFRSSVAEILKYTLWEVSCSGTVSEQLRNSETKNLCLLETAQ
Assay: cryo-EM structure

binding result: binds
B1: full-length chemerin (21-157) (ligand)
chain: ELTEAQRRGLQVALEEFHKHPPVQWAFQETSVESAVDTPFPAGIFVRLEFKLQQTSCRKRDWKKPECKVRPNGRKRKCLACIKLGSEDKVLGRLVHCPIETQVLREAEEHQETQCLRVQRAGEDPHSFYFPGQFAFS
